The sequences below were run on Saccharomyces cerevisiae (assay: transcriptional activation domain activity (GFP:mCherry ratio, weighted mean of sorted bins, harmonized to initial dataset scale) (arbitrary fluorescence ratio units); higher = stronger transcriptional activation). Conditions: beta-estradiol 1 µM; induction time 4 h.
Method in brief: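 Yeast diploids with a GFP reporter received barcoded protein tiles, fused to an estradiol-inducible synthetic transcription factor, at the URA3 locus. Cultures were diluted 1:5 into SC holding 1 uM beta-estradiol, incubated 4 hours at 30 °C, sorted into 8 bins on GFP:mCherry ratio, and sequenced for barcodes, with tiles under 50 reads discarded. Activation activity values come from the read-weighted mean of bin median fluorescence, averaged across barcodes and linearly placed on the initial dataset scale.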

Compared with “FNNDGWDTSLPIDFDFDEFNTETTDFDDFLKLLGDNSPSKEQKSLSYSPTATG”, “HWKLNLYFMLTNVIVVLPLYQVYIYLLGCHPKSPLYHHRVKLSVFAWSIWFYC” is lower in “transcriptional activation domain activity” value: 162000 for the first, 36200 for the second.

Going from “CLYVHQQLRESLGLGWLRQDTFFNYTRDRICVWNLNRKYSAFSTITSTVTHVR” to “VPLVSNSGIVCYDSKIMHAFLSGLLFLQGLMILWFIMIFKLVVRVLLGENAED”, the “transcriptional activation domain activity” value rises from 39700 to 43900.

Going from “TVLLDVALNGNPKELIVFILEHVYSLENDLTVLQQSLLVLVICKVYNETYPKQ” to “SALFCKIWTIIQAYYIVISFISIHNCMPCTMPFHHECVGSIPLWLWVTWLPSI”, the “transcriptional activation domain activity” value falls from 67400 to 40400.

Going from “MGGGCLYIILFLLRTTLGVMWVFFCLLFYLFLFWFSKSLIFFSLFLVLIPSYF” to “LSQNYLLTWDDSGDWLSLADAGVIAALLFRNNLSETWLDEFASWCRLLWYLRQ”, the “transcriptional activation domain activity” value rises from 36500 to 58600.

Going from “GARTGKDKEKEKDKEKDKGARRSSCRSWSRDRGRSRSRSPRRDRERDRERGRG” to “LKEKSLRILILNGLVRLIWTYLYRCQESPSTTTTKLENLLKYLFPPNRTSVYP”, the “transcriptional activation domain activity” value rises from 31500 to 44900.

Going from “DNPSFLPLDIEQSSYDLSEDAMSYPIISTQSNRDCTQYDNTKISQILQSQLNP” to “TECASIPFAKMRALLNGIPVTNLNDRDRMMLFIFKLVLLEVRSKNTLEILSNH”, the “transcriptional activation domain activity” value falls from 63900 to 33400.

Going from “AYTDEDDAHQIRRKQLSMVLRGMPSVFDSLTHARVYLELIFRQMEHYLYVAAT” to “MGCILIFSFFSFPTSIKKFLLLSFPFLSFPFPSLLFYLGFFSFLLYILQKFLV”, the “transcriptional activation domain activity” value rises from 42200 to 58100.

First: WLAHSKKKTCDVCKHPYSFTKVYATDMPTRLPPVLLLRRVAQQSFFAMIFAVR
Second: VCLSLYIITCVFGWLLYFITATLSYYYVFDHDYMKHPKFLKNQIRLEINCAAS
The “transcriptional activation domain activity” value of the first is lower: 35900 for the first, 76600 for the second.

Going from “MAALLWVLAVCLWIHPLSILAFTFHSVEGFKLVREILLDVLPTFDPHSYQIDG” to “APTLNYELARKFIENSEDALHNSETMDLLGTLSHGNDFALEYNFDFTLLNEID”, the “transcriptional activation domain activity” value rises from 53200 to 121000.

Compared with “MSEPPRKRAKLACVTCNARRVKCDVTERQPCGNCVAGKILCETRESKRGKHPR”, “PHGLLLPLLAHLFSLVLKISFLFCFEYKLAIFIFALVWQSLVVASLTCGFVFV” is higher in “transcriptional activation domain activity” value: 33800 for the first, 55700 for the second.

Compared with “MTPRAQDSSSDDKEDKKDTDRAAIRAAQNRKAQRLYRQRKEARVRELEATVAK”, “PSPRRRRDEDRPRRGGGGFRWKGEERRDRRERPRSPRPEKRRRSKSPRPEKKK” is lower in “transcriptional activation domain activity” value: 78900 for the first, 27500 for the second.

Going from “LTYRVYIMGIGIWMTYLGIGWFLCIILPFLFRFCRLMFWWRKLCFLQALFFFF” to “SADTQKEEGKRAKVEKNRRGKRDGHKAGRFSGGRRKERGEASTQAGAAAAGAN”, the “transcriptional activation domain activity” value falls from 62200 to 37500.

First: KKEEVKQEPTPAAAPEASTSDRGRGRGRGRGEGRGRGDGTRGRGRGGARPAGP
Second: EQDSWNAQLDFFNHIFYTQLYPAYDLPKKLQEDTELETEQENQMLNQVGNINY
The “transcriptional activation domain activity” value of the first is lower: 34900 for the first, 109000 for the second.

Going from “MSFQPLFYLLGLGVLFPLLFLLLSPPLFPSMAPFFLLQILLLMLTTELFFVPL” to “SFSILYSRFAGPSIYMGMRNLLILLYVSMAIWIPHLIYFWLSVLSLCIAPFLF”, the “transcriptional activation domain activity” value falls from 39700 to 37800.

Compared with “IRLVSSEMIRYLKKHDFKDITYYTLYISLMGFSKRYYRQGILMLKCVDIEVIY”, “KFHYRCGVAAKDTTESLRWVVADHYTWFTCTHCAAHKAHWYFDGSLGLVRLWF” is lower in “transcriptional activation domain activity” value: 74500 for the first, 69200 for the second.

Compared with “DPTSRAPTAVRVRVKHSSGEEQEEEERLPADGVVICAGPWTGRVARRLLGEKV”, “GRHPEQHGVRYSLSKDSGATIVDIYLAHLLECLIPVVGRLKSVVSNLGTMRQT” is higher in “transcriptional activation domain activity” value: 37200 for the first, 78200 for the second.

First: YADWLLEPEQNNGTWVSDVLWPAINLDLQWISLHWNESSWDLWWPPVWGGSYW
Second: PASNGHAEPETKPEPEAAPEPVEEKAATPAPATPAQPSPAPTPAPAAAAPSPA
The “transcriptional activation domain activity” value of the first is higher: 52100 for the first, 10200 for the second.

Compared with “GSVKKKLASSSRTGQACDRCKVRKIRCDPRPEGCSPCAQNRTPCKTTDRITGR”, “AAAKAAPAIEEEPQEEQPEEPDKAAAPKKRGRKRKSSGVGAATAAAAAVPRGP” is lower in “transcriptional activation domain activity” value: 41900 for the first, 9830 for the second.

First: EVNYLYGLILLQFYTGFIHDIIFGSGHLPFLPLMITSIYCSLGVVYGWGYFML
Second: QCGLICTLYFANRYGIILGSLPFALQPFIHWTSKGWCLIFRIYLLIYASFVLL
The “transcriptional activation domain activity” value of the first is higher: 51000 for the first, 43200 for the second.

First: FFELLGLFVFFVLFLVGAAIASTFWGDLFWCHSFWQCRVLTVLVAFAWMCWVL
Second: DADGNPTGDGEPPKKRRRRQALSCTECKRRKIKCDRNHPCSPCARRGDGQKCQ
The “transcriptional activation domain activity” value of the first is higher: 46900 for the first, 13000 for the second.

Compared with “FFFVNGMWYNMAYIFGSWKLGWWELGAKIFVFQEVYETLLYLLTPFILPISFY”, “LFLMVWYLLMFSFDKKAIEHAWGLMGLLSKLAQSLSLRKFVHSEILAHHLIGS” is higher in “transcriptional activation domain activity” value: 48600 for the first, 80300 for the second.

Compared with “CRESRGNRGTGEGGAGEQGKGEQGKGEQGKGEQGNRGRGSRETGEGGAGKQGN”, “VHEVRAKAVKLVTASDSDDESGAGAGKAKKSEWKTQGVGPLRLLKNKSTGAVR” is higher in “transcriptional activation domain activity” value: 29800 for the first, 32400 for the second.

Going from “SLISFRLLGEVATGIKYLVCYDMPNMSRIEVELAKRLYCLILCGLCTWSIYGR” to “ITMQQIQRDSDKYLCIQGVFELFRSPLYTVLTLDKSVLGPTVLVRLLTVLAER”, the “transcriptional activation domain activity” value falls from 79500 to 39400.

Compared with “SQKKHCELCKTAFRFTKLYSPDMPKHLPFHIFVHHMTRYLIRNFLVWLRAALV”, “MHDTWFPFLAIVLLFYPTILGPGTFSIYFPHSALPPYMSLHLYVHARFLLLLL” is higher in “transcriptional activation domain activity” value: 61500 for the first, 65800 for the second.

Going from “DRMRENGLLSLSDLREYFVCWWRFEKMYRTLIIAETWMDLQAYKVKTLAWLHG” to “LLTYKLYRLWIVAAKITDDEKRKQCLHLTCCLLPKCHRDSLEILFYFLKWAGT”, the “transcriptional activation domain activity” value falls from 63200 to 50700.

Compared with “VIEKLFWRVSALYICTHQFLLWALFMIRDYLLSKYPGSQLVLRCHMVLKIMLF”, “MEAREGRAGNAFACERCRKHKVRCVPSGTAGICQRCQKARVECIEHVARRRPA” is lower in “transcriptional activation domain activity” value: 46400 for the first, 29100 for the second.

First: KDESSSSRRRRGGRSEKEKRERTGDEGDSSSRHRSGRDREGDEEADDDERGSS
Second: GGKKGGRTKGATARDKSPEGRTDRPASKGKSLKTGGEDGKGKKSGERAGKLAH
The “transcriptional activation domain activity” value of the first is lower: 37500 for the first, 60400 for the second.

First: ASDSAPEPVKKKRGRPPKAQSDSEVVEKRPKKKPGPKPKPKAKAARKRKAPVS
Second: LIPTEGGELALGGAPLEDEDESTSDEEETPKASFQARLERLRKRMDGRPIKDI
The “transcriptional activation domain activity” value of the first is lower: 18900 for the first, 26300 for the second.

Going from “MFLSTVMTRSICTFIFVEFELHGDAKSLCCGGLCRFCRLCSKVGVNYYSPCWW” to “LREKGGSQQQQHQQQQQQQQQQQQQQQQQSLDTLLHHYQSLLSKSDNAIAFDD”, the “transcriptional activation domain activity” value falls from 73000 to 26800.

Going from “DALGLRRPSLYYKALVAGQCIFFMALCYTYRMIPYLDQKKIKTLKKVFFRIII” to “SSEEEDEEDEEEEEEEEEEEAPPKKRAKTKGTVLYCYIFSPFFVPATVNPAID”, the “transcriptional activation domain activity” value falls from 68800 to 56700.

Compared with “MFSCLLFLAYLPAISLIPCDCFWVFFFFFFLGCVKTRVLYLFFFFLCCSWFFY”, “RTTALGVWFLLIQSLWYFTFGALYIWFFCHTWEYLSTLLVFDYLLRFILCLMF” is higher in “transcriptional activation domain activity” value: 47400 for the first, 68100 for the second.

Going from “TFLLLPIFVCPHPNLLFGLGFSLILHACLRQIFLSSLVICVFLSLLVIYMLYV” to “MDEGFFFFCFSFLFLLSPPSSWYFVFSFFLPLNFPSCSLFFVITFFLFLFFFW”, the “transcriptional activation domain activity” value falls from 50900 to 37900.

First: DETNIHFDSMWCNDEYMKLKDIVDISTPFLPNNSQIFSLQESEYPNPSASTRG
Second: SATEFVTVGGTGNVYHWDMEYSFSRNDDDNEDEVRVAAPEELQGQCLKFFHTG
The “transcriptional activation domain activity” value of the first is higher: 136000 for the first, 51000 for the second.

Going from “QGFMNVTFTNGRKYEALSKQLIFIVHAIFMAANDHVGYILLRALRVYMELDVY” to “MRGTSLFLFYFISFLSLFLFQLLHFFFFSYFLFRYFVSIIIIFFLIQVVFGLV”, the “transcriptional activation domain activity” value falls from 69900 to 53200.

Going from “LLILSLTVPFLHGLLRPHTHYVHLLVVVFLTFSPFFVILTISYEGLFYVIFCI” to “MPLPPGISYILKRAPSLLLPGVITYFASKYVVNYCRLTLPRWILCALVLLAKP”, the “transcriptional activation domain activity” value rises from 57900 to 86300.

Going from “ITVYMVIIIFCLFQFFLFLIIVGLVPRIDTTYFGWSCWGYGRIIFSWWISGSF” to “MHYTTLLYFIYISFNFFTLILILFFNPFFFVSILSFSFLLFLFCCCSISEVVV”, the “transcriptional activation domain activity” value rises from 34400 to 64300.

Compared with “AVEARFVTPQDPVLIQDDGSRLPPVPLEEAYKLNVLRREVIERAGSVAKAIEG”, “VPSDSRRCRLKGVTVFTWWRNVFRQALRHQRWICLQYITSFEREWRSVLAIVR” is lower in “transcriptional activation domain activity” value: 63700 for the first, 44800 for the second.

First: RAAAVRGAAQEPQPESRGTSATPARKTAKTEGEEKPAKKRRTAGGDKANKRSK
Second: NIFMLVFWSLALIYWSMFVIIPSIFNYFSPYHYSRWKVVLVNVGTFVWNLATC
The “transcriptional activation domain activity” value of the first is lower: 9380 for the first, 61300 for the second.

Compared with “SLTQLIWYLLRRRPFTVLQLNHLFGLPDPLRILHLASSRRLWNAIPVITIATL”, “MMRCRFGVVFRILPYYLFVFPQIFIYLLLDSFDVQSSLPLLLLYTSLIILVTW” is higher in “transcriptional activation domain activity” value: 54600 for the first, 56900 for the second.

Compared with “SALRYYFKVELYNLPARQWFERCFFTPLEVFNTAWLAYILLAQTTGSMVNCAC”, “LFINRLMWLVRSYLTTFFCKSCPGLAKKLIKYVTIQQLPPDVSWDPHFKPRYN” is higher in “transcriptional activation domain activity” value: 38200 for the first, 67600 for the second.

First: SRRAHSSDRDEARSARRRGRDRSRSRNRSRSWSRHRHRHRSHSRDAPAAAAAR
Second: MAPPTSKTTPDSPDSGAPRKRRRTALACEECRDRKRKCDGVKPVCGACKTRPA
The “transcriptional activation domain activity” value of the first is higher: 22600 for the first, 21900 for the second.

For “ANEEAEPEHPEPAAEANDSTGREGRGRGKRGRDRGRGRGRGRGGRSGRGGASG”, the “transcriptional activation domain activity” value was 27600.

From the supplement of paper PMC12636428
